# US20220213216A1 (SOUND BIOPHARMACEUTICALS, published 2022)
# B1: bivalent anti-Her2 bispecific antibody Bi-Bs (anti-CD3 UCHT1 Fab with anti-Her2 VHH1 on both CL and CH1) (bispecific antibody)
# chain 1: EIVLTQSPATLSLSPGERATLSCSASSGVNYMHWYQQKPGQAPRRWIYDTSKLASGVPARFSGSGSGTSYSLTISSLEPEDFAVYYCHQRGGSYTFGGGTKLEIKRKLTVAAPSVFIFPPSDEQLKSGTASVVCLLNNFYPREAKVQWKVDNALQSGNSQESVTEQDSKDSTYSLSSTLTLSKADYEKHKVYACEVTHQGLSSPVTKSFNRGECGSQVQLVQSGGGLVQAGGSLRLSCAASGRTFSSYAMAWFRQAPGKEREFVAAISWSGANIYVADSVKGRFTISRDNAKDTVYLQMNSLKPEDTAVYYCAVKLGFAPVEERQYDYWGQGTQVTVSS
# chain 2: QVQLVQSGAEVKKPGASVKVSCKTSGYTFTSNWMHWVRQAPGQGLEWMGEIDPSDSYTNYNQKFKGRVTITVDKSASTAYMELSSLRSEDTAVYYCARGSNPYYYAMDYWGQGTLVTVSSKLASTKGPSVFPLAPSSKSTSGGTAALGCLVKDYFPEPVTVSWNSGALTSGVHTFPAVLQSSGLYSLSSVVTVPSSSLGTQTYICNVNHKPSNTKVDKKVGSGGGGSGGGGSGGGGSQVQLVQSGGGLVQAGGSLRLSCAASGRTFSSYAMAWFRQAPGKEREFVAAISWSGANIYVADSVKGRFTISRDNAKDTVYLQMNSLKPEDTAVYYCAVKLGFAPVEERQYDYWGQGTQVTVSS
# notes: 3 is VL-CL-VHH1, so the heavy and light labels are probably swapped in this sentence; Expressed in E. coli and purified on Ni Sepharose
# B2: bispecific antibody Bp-Bs with dual Her2 binding sites (anti-CD3 UCHT1 Fab with anti-Her2 VHH1 on CL and anti-Her2 VHH2 on CH1) (bispecific antibody)
# light: B1 chain 1
# heavy: QVQLVQSGAEVKKPGASVKVSCKTSGYTFTSNWMHWVRQAPGQGLEWMGEIDPSDSYTNYNQKFKGRVTITVDKSASTAYMELSSLRSEDTAVYYCARGSNPYYYAMDYWGQGTLVTVSSASTKGPSVFPLAPSSKSTSGGTAALGCLVKDYFPEPVTVSWNSGALTSGVHTFPAVLQSSGLYSLSSVVTVPSSSLGTQTYICNVNHKPSNTKVDKKVEPKSCDKTHTCAAGGGGSGGGGSGGGGSQVQLQESGGGSVQAGGSLRLSCRASGFTFSSYAMSWVRQPPGKELEWVSAIWGGGDSQHYADSVKGRFTISRDNAKNTLYLQLNSLKTEDTGMYYCVKDRGPFFSGSKYVLGAADRGQGTQVTVSS
# notes: VHHs are linked by (GGGGS)3; Expressed in E. coli and purified on Ni Sepharose; About 79 kDa
# B3: anti-Her2-VHH1-Fc (Fc fusion)
# chain: QVQLVQSGGGLVQAGGSLRLSCAASGRTFSSYAMAWFRQAPGKEREFVAAISWSGANIYVADSVKGRFTISRDNAKDTVYLQMNSLKPEDTAVYYCAVKLGFAPVEERQYDYWGQGTQVTVSS
# notes: Called a single-site bivalent antibody; 1; also called single-site bivalent antibody anti-Her2 VHH1-Fc; not shown: Fc and any linker are not described
# B4: anti-Her2-VHH2-Fc (Fc fusion)
# chain: QVQLQESGGGSVQAGGSLRLSCRASGFTFSSYAMSWVRQPPGKELEWVSAIWGGGDSQHYADSVKGRFTISRDNAKNTLYLQLNSLKTEDTGMYYCVKDRGPFFSGSKYVLGAADRGQGTQVTVSS
# notes: Called a single-site bivalent antibody; 2; not shown: Fc and any linker are not described
# What was measured:
# [1] = biological target: T1, human Her2 with an Fc tag (AcroBiosystem, catalog number HE2-H5253) (human, UniProt P04626 23-652); assay: BLI (OctetQKe); Fc-tagged human Her2 loaded on Protein A biosensors, antibody in two-fold dilutions, 1:1 fit
# T1 construct: extracellular domain; Bought protein, loaded on Protein A biosensors; also called Her2 antigen; extracellular region of the Her2 protein; not shown: Fc tag of the bought protein, not described
# Protocol: (§1) Affinity assay: The OctetQKe instrument (Pall Life Sciences) was used to determine the affinity of the anti-Her2 antibody to the extracellular region of the Her2 protein. Briefly, human Her2 with an Fc tag in PBST (AcroBiosystem, catalog number HE2-H5253) was loaded onto the surface of ProteinA Capture Biosensors (ProA). Immobilization level was set at […]. Then a 60-second biosensor baseline step was performed, and the antigen/antibody association was analyzed for 180 seconds on the biosensor to test the antibody/antigen. The test molecules were then applied at a two-fold concentration gradient. The data analysis software version 8.2 (PALL/ForteBio) was used to evaluate the Octet data, and the full-fit 1:1 modal was used to determine the Kd value.
# [2] = biological target: T1, human Her2 with an Fc tag …; assay: BLI (OctetQKe); Fc-tagged human Her2 loaded on Protein A biosensors, antibody in two-fold dilutions, 1:1 fit; column head Kdis
# Protocol: as §1
# [3] = biological target: T1, human Her2 with an Fc tag …; assay: BLI (Octet QKe), Her2-Fc on Protein A biosensors, 1:1 fit; single-site bivalent Bi-Bs
# Protocol: as §1
# (§2) In order to detect the binding ability of the antibodies to Her2 antigen, biofilm interference technology (BLI) was used to analyze the interaction between the antibodies and Her2 antigen.
# [4] = biological target: T1, human Her2 with an Fc tag …; assay: BLI (Octet QKe), Her2-Fc on Protein A biosensors, 1:1 fit; Bp-Bs with dual Her2 binding sites
# Protocol: as §1, §2
# [5] = biological target: T1, human Her2 with an Fc tag …; assay: BLI (Octet QKe), Her2-Fc on Protein A biosensors, 1:1 fit
# Protocol: as §1, §2
Binder,kon [1] [M⁻¹ s⁻¹],koff [2] [s⁻¹],Kd [3] [nM],Kd [4] [nM],Kd [5] [nM]
B1,163000,0.000497,3.06,–,–
B2,215000,2.33e-05,–,0.109,–
B3,298000,0.00263,–,–,8.85
B4,29800,8.99e-05,–,–,3.02
